Test results from patent US20210380702A1.

Target: recombinant human PD-L1 (amino acids 19-239 of NP_054862.1) expressed with a C-terminal human IgG1 Fc tag (human)
Test: SPR (Biacore 3000): 100 nM hPD-L1-hFc + 500 nM mAb on captured hPD-1-mFc, 25C

Chain of recombinant human PD-L1 (amino acids 19-239 of NP_054862.1) expressed with a C-terminal human IgG1 Fc tag (human) (chain, as listed by the source limits assumed): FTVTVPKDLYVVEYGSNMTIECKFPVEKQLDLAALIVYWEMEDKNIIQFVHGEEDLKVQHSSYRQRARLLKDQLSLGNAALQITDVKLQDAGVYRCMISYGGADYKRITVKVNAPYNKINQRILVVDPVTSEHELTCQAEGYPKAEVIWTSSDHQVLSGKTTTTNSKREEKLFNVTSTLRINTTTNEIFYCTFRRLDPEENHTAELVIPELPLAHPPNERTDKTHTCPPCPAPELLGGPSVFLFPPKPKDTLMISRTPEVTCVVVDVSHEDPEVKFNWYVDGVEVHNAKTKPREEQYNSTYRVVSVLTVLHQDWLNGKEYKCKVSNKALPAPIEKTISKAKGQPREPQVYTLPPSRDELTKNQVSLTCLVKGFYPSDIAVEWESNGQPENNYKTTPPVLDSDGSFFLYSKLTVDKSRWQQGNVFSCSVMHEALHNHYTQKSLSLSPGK

With “Isotype control antibody (Table 13, Biacore assay of human Fc antibodies)” as the substance, how does the % Blocking read?
The % Blocking was 0%.
